Earlier results on one substance are cited in article PMC4752257.

The target of the series is IL-4R alpha (Homo sapiens) (UniProt P24394).
Chain of UniProt P24394 (P24394 26-232): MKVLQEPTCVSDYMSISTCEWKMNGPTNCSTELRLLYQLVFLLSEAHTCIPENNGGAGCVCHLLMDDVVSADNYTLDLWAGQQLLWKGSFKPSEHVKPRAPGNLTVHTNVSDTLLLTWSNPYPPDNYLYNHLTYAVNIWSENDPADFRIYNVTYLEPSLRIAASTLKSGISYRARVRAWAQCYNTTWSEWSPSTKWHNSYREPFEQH

With IL-4 (from UniProt P05112), the Kd was 0.6 nM.

For orientation: Kd means a measure of binding affinity in units of concentration.
